We go through 84 variants from the RNAGym collection of RNA variant scans (doi:10.1021/acssynbio.7b00057).

The labels stand for the following.
B1: Pistol ribozyme (parent)
chain: GGGUCGUUGUUCCAUAAUCGCGUGGAUAUGGCACGCAAGUUUCUACCGGGCACCGUAAAUGUCCGACUGGAGCCGUUCGGGCGGCUAUAAACAGACCUCAGGCCCGAAGCGUGGCGGCACCUGCCGCCGGUGGUAAAAAAGAUCGGAAGAGCACACGUCU

This data set covers variants of B1. Kind of data set: aptazyme ON/OFF ratio, guanine; higher = stronger switching; co-transcriptional cleavage with and without guanine.
On to U7A G9A U10A C12U, for which the “aptazyme ON/OFF ratio” value was 1.21.
The figure for U7A G9A U10A C12G is 1.21; for U7A G9A U10A C12A it is 1.3.
On to U7A G9A U10A C13U, for which the “aptazyme ON/OFF ratio” value stood at 1.29.
For the variant U7A G9A U10A C13G, the “aptazyme ON/OFF ratio” value was 1.09.
For U7A G9A U10A C13A, the “aptazyme ON/OFF ratio” value is 1.26.
As for U7A G9A U10C C12U C13U, the figure is 1.2; as for U7A G9A U10C C12U C13A, 1.08; as for U7A G9A U10C C12U C13G, 1.12.
The figure for U7A G9C U10A U11A C13G is 1.03; for U7A G9C U10A U11A C13U it is 1.1.
As for U7A G9C U10A U11A C13A, the figure is 1.11; as for U7A G9A U10C, 1.96.
U7A G9A U10G: the “aptazyme ON/OFF ratio” value came out at 1.53.
The figure for U7A G9A U10A is 1.52; for U7A G9A C12G it is 2.38; for U7A G9A C12A it is 2.25.
As for U7A G9A C12U, the figure is 2.04; as for U7A G9A U10A U11A C12G C13G, 1.21; as for U7A G9A U10A U11A C12G C13A, 1.09.
As for U7A G9A U10A U11A C12G C13U, the figure is 1.05.
Take U7A G9A U10C U11A C12G C13U: the “aptazyme ON/OFF ratio” value came to 1.16.
Consider U7A G9A U10C U11A C12G C13G, for which the “aptazyme ON/OFF ratio” value was 1.32.
The figure for U7A G9A U10C U11A C12G C13A is 1.19; for U7A G9A U10A U11A C12G it is 1.15; for U7A G9A U10A U11A C12U it is 1.21.
The figure for U7A G9A U10A U11A C12A is 1.25.
As for U7A G9A U10G C12G C13A, the figure is 1.21; as for U7A G9A U10G C12G C13G, 1.11; as for U7A G9A U10G C12G C13U, 1.18.
With U7A G9A U10A U11G C12G, the “aptazyme ON/OFF ratio” value was 1.13.
The figure for U7A G9A U10A U11G C12U is 1.17; for U7A G9A U10A U11G C12A it is 1.1.
In the case of U7A G9C U10A U11A, the “aptazyme ON/OFF ratio” value came out at 1.07.
As for U7A G9C U10A U11C, the figure is 1.04; as for U7A G9C U10A U11C C12A C13U, 1.09.
The figure for U7A G9C U10A U11C C12A C13G is 1.1; for U7A G9C U10A U11C C12A C13A it is 1.06; for U7A G9A U10A U11G C13G it is 1.11.
Regarding U7A G9A U10A U11G C13A, the “aptazyme ON/OFF ratio” value amounted to 1.29.
The figure for U7A G9A U10A U11G C13U is 1.12.
As for U7A G9C U10A U11A C12U C13G, the figure is 1.1.
The figure for U7A G9C U10A U11A C12U C13U is 1.1.
On to U7A G9C U10A U11A C12U C13A, for which the “aptazyme ON/OFF ratio” value worked out at 1.13.
As for U7A G9A U10A C12G C13U, the figure is 1.41; as for U7A G9A U10A C12G C13A, 1.25; as for U7A G9A U10A C12G C13G, 1.3.
With U7A G9A C12A C13A, the “aptazyme ON/OFF ratio” value worked out at 1.13.
As for U7A G9A C12A C13U, the figure is 1.37; as for U7A G9A C12A C13G, 1.13.
As to U7A G9A U10G U11G C12G C13A, the “aptazyme ON/OFF ratio” value came to 1.2.
As for U7A G9A U10G U11G C12G C13U, the figure is 1.16; as for U7A G9A U10G U11G C12G C13G, 1.09; as for U7A G9A U10C U11C C12U C13U, 1.04.
The figure for U7A G9A U10C U11C C12U C13A is 1.03; for U7A G9A U10C U11C C12U C13G it is 1.04.
The figure for U7A G9A U10G U11C C13U is 1.02; for U7A G9A U10G U11C C13A it is 1.19; for U7A G9A U10G U11C C13G it is 1.11.
Take U7A G9A U10G C12U C13A: the “aptazyme ON/OFF ratio” value amounted to 1.06.
As for U7A G9A U10G C12U C13U, the figure is 1.32; as for U7A G9A U10G C12U C13G, 1.14; as for U7A G9A U11A C12G C13U, 1.28.
The figure for U7A G9A U11A C12G C13G is 1.16.
The figure for U7A G9A U11A C12G C13A is 1.19; for U7A G9A U10C U11G C13U it is 1.25; for U7A G9A U10C U11G C13G it is 1.19.
For U7A G9A U10C U11G C13A, the “aptazyme ON/OFF ratio” value came out at 1.22.
The figure for U7A G9C U10A is 1.38; for U7A G9A U11C C12G C13A it is 1.18; for U7A G9A U11C C12G C13G it is 1.17.
With U7A G9A U11C C12G C13U, the “aptazyme ON/OFF ratio” value was determined as 1.15.
As to U7A G9A U11A C13G, the “aptazyme ON/OFF ratio” value came out at 1.11.
As for U7A G9A U11A C13U, the figure is 1.06; as for U7A G9A U11A C13A, 1.17.
The figure for U7A G9A U10G U11C C12A C13A is 1.16; for U7A G9A U10G U11C C12A C13G it is 1.14.
The figure for U7A G9A U10G U11C C12A C13U is 1.11; for U7A G9A U10C U11A C13U it is 1.19; for U7A G9A U10C U11A C13A it is 1.15.
Take U7A G9A U10C U11A C13G: the “aptazyme ON/OFF ratio” value is 1.12.
As for U7A G9A U11G C12A C13A, the figure is 1.1; as for U7A G9A U11G C12A C13G, 1.28; as for U7A G9A U11G C12A C13U, 1.28.
